How the values were obtained:
human IL-18 [1] = biological target: T1, human IL-18 (human, UniProt Q14116 37-193); experiment: method not given; the same paragraph names BIAcore and FORTEbio as possible methods and mentions 25 C
T1 construct: also called Interleukin-18
T1 sequence (looked up): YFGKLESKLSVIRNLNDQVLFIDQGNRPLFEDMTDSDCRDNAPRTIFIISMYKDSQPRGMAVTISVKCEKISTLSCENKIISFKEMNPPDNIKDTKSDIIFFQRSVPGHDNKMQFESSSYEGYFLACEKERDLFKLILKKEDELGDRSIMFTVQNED

human IL-18 [2] = biological target: T1, human IL-18; experiment: cell-based or functional assay

B1: H1L2 (SEQ ID NO:7 and SEQ ID NO:11) (antibody, human IgG1, kappa, V domains shown)
VH: QVQLVQSGAEVKKPGASVKVSCKVSGEISTGYYFHWVRQAPGKGLEWMGRIDPEDDSTKYAERFKDRVTMTEDTSTDTAYMELSSLRSEDTAVYYCTTWRIYRDSSGRPFYVMDAWGQGTLVTVSS
VL: DIQMTQSPSSVSASVGDRVTITCLASEDIYTYLTWYQQKPGKAPKLLIYGANKLQDGVPSRFSGSGSGTDYTLTISSLQPEDFATYYCLQGSKFPLTFGQGTKLEIKR
notes: also called anti-IL-18 antibody H1L2
Kd (human IL-18 [1]): 0.0303 nM | IL-6 gene expression in IL-18 stimulated ex-vivo human whole blood (Affymetrix microarray), IL-18 50 ng/ml + H1L2 1 ug/ml vs IL-18 alone (human IL-18 [2]): 7 fold decrease | IRS2 gene expression in IL-18 stimulated ex-vivo human whole blood (microarray), IL18+H1L2 vs IL18 alone (human IL-18 [2]): 1.4 fold increase | JAK2 gene expression in IL-18 stimulated ex-vivo human whole blood (microarray), IL18+H1L2 vs IL-18 alone (human IL-18 [2]): 2.1 fold decrease | MCP-1 gene expression in IL-18 stimulated ex-vivo human whole blood (microarray), IL18+H1L2 vs IL18 alone (human IL-18 [2]): 2.6 fold decrease | MCP-4 gene expression in IL-18 stimulated ex-vivo human whole blood (microarray), IL18+H1L2 vs IL18 alone (human IL-18 [2]): 2.5 fold decrease | PPAR gamma gene expression in IL-18 stimulated ex-vivo human whole blood (microarray), IL18+H1L2 vs IL18 alone (human IL-18 [2]): 1.7 fold increase | SOCS3 gene expression in IL-18 stimulated ex-vivo human whole blood (microarray), IL18+H1L2 vs IL-18 alone (human IL-18 [2]): 1.9 fold decrease | STAT3 gene expression in IL-18 stimulated ex-vivo human whole blood (microarray), IL18+H1L2 vs IL-18 alone (human IL-18 [2]): 1.6 fold decrease

— patent US20120308564A1 (published 2012)
